In US20100015650:

T1: BRB1 tyrosine kinase substrate peptide
T1 chain: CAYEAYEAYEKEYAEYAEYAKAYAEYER

B1: IGF1R (protein)
chain: RKRNNSRLGNGVLYASVNPEYFSAADVYVPDEWEVAREKITMSRELGQGSFGMVYEGVAKGVVKDEPETRVAIKTVNEAASMRERIEFLNEASVMKEFNCHHVVRLLGVVSQGQPTLVIMELMTRGDLKSYLRSLRPEMENNPVLAPPSLSKMIQMAGEIADGMAYLNANKFVHRDLAARNCMVAEDFTVKIGDFGMTRDIYETDYYRKGGKGLLPVRWMSPESLKDGVFTTYSDVWSFGVVLWEIATLAEQPYQGLSNEQVLRFVMEGGLLDKPDNCPDMLFELMRMCWQYNPKMRPSFLEIISSIKEEMEPGFREVSFYYSEENKLPEPEELDLEPENMESVPLDPSASSSSLPLPDRHSGHKAENGPGPGVLVLRASFDERQPYAHMNGGRKNERALPLPQSSTC
B2: KIT (protein)
chain: TYKYLQKPMYEVQWKVVEEINGNNYVYIDPTQLPYDHKWEFPRNRLSFGKTLGAGAFGKVVEATAYGLIKSDAAMTVAVKMLKPSAHLTEREALMSELKVLSYLGNHMNIVNLLGACTIGGPTLVITEYCCYGDLLNFLRRKRDSFICSKQEDHAEAALYKNLLHSKESSCSDSTNEYMDMKPGVSYVVPTKADKRRSVRIGSYIERDVTPAIMEDDELALDLEDLLSFSYQVAKGMAFLASKNCIHRDLAARNILLTHGRITKICDFGLARDIKNDSNYVVKGNARLPVKWMAPESIFNCVYTFESDVWSYGIFLWELFSLGSSPYPGMPVDSKFYKMIKEGFRMLSPEHAPAEMYDIMKTCWDADPLKRPTFKQIVQLIEKQISESTNHIYSNLANCSPNRQKPVVDHSVRINSVGSTASSSQPLLVHDDV
B3: IRR (protein)
chain: YGKKRNRTLYASVNPEYFSASDMYVPDEWEVPREQISIIRELGQGSFGMVYEGLARGLEAGEESTPVALKTVNELASPRECIEFLKEASVMKAFKCHHVVRLLGVVSQGQPTLVIMELMTRGDLKSHLRSLRPEAENNPGLPQPALGEMIQMAGEIADGMAYLAANKFVHRDLAARNCMVSQDFTVKIGDFGMTRDVYETDYYRKGGKGLLPVRWMAPESLKDGIFTTHSDVWSFGVVLWEIVTLAEQPYQGLSNEQVLKFVMDGGVLEELEGCPLQLQELMSRCWQPNPRLRPSFTHILDSIQEELRPSFRLLSFYYSPECRGARGSLPTTDAEPDSSPTPRDCSPQNGGPGH
B4: FLT3 (protein)
chain: HKYKKQFRYESQLQMVQVTGSSDNEYFYVDFREYEYDLKWEFPRENLEFGKVLGSGAFGKVMNATAYGISKTGVSIQVAVKMLKEKADSSEREALMSELKMMTQLGSHENIVNLLGACTLSGPIYLIFEYCCYGDLLNYLRSKREKFHRTWTEIFKEHNFSFYPTFQSHPNSSMPGSREVQIHPDSDQISGLHGNSFHSEDEIEYENQKRLEEEEDLNVLTFEDLLCFAYQVAKGMEFLEFKSCVHRDLAARNVLVTHGKVVKICDFGLARDIMSDSNYVVRGNARLPVKWMAPESLFEGIYTIKSDVWSYGILLWEIFSLGVNPYPGIPVDANFYKLIQNGFKMDQPFYATEEIYIIMQSCWAFDSRKRPSFPNLTSFLGCQLADAEEAMYQNVDGRVSECPHTYQNRRPFSREMDLGLLSPQAQVEDS
B5: HER4 (ERBB4) (protein)
chain: RRKSIKKKRALRRFLETELVEPLTPSGTAPNQAQLRILKETELKRVKVLGSGAFGTVYKGIWVPEGETVKIPVAIKILNETTGPKANVEFMDEALIMASMDHPHLVRLLGVCLSPTIQLVTQLMPHGCLLEYVHEHKDNIGSQLLLNWCVQIAKGMMYLEERRLVHRDLAARNVLVKSPNHVKITDFGLARLLEGDEKEYNADGGKMPIKWMALECIHYRKFTHQSDVWSYGVTIWELMTFGGKPYDGIPTREIPDLLEKGERLPQPPICTIDVYMVMVKCWMIDADSRPKFKELAAEFSRMARDPQRYLVIQGDDRMKLPSPNDSKFFQNLLDEEDLEDMMDAEEYLVPQAFNIPPPIYTSRARIDSNRSEIGHSPPPAYTPMSGNQFVYRDGGFAAEQGVSVPYRAPTSTIPEAPVAQGATAEIFDDSCCNGTLRKPVAPHVQEDSSTQRYSADPTVFAPERSPRGELDEEGYMTPMRDKPKQEYLNPVEENPFVSRRKNGDLQALDNPEYHNASNGPPKAEDEYVNEPLYLNTFANTLGKAEYLKNNILSMPEKAKKAFDNPDYWNHSLPPRSTLQHPDYLQEYSTKYFYKQNGRIRPIVAENPEYLSEFSLKPGTVLPPPPYRHRNTVV
B6: FLT4 (protein)
chain: MRRPAHADIKTGYLSIIMDPGEVPLEEQCEYLSYDASQWEFPRERLHLGRVLGYGAFGKVVEASAFGIHKGSSCDTVAVKMLKEGATASEHRALMSELKILIHIGNHLNVVNLLGACTKPQGPLMVIVEFCKYGNLSNFLRAKRDAFSPCAEKSPEQRGRFRAMVELARLDRRRPGSSDRVLFARFSKTEGGARRASPDQEAEDLWLSPLTMEDLVCYSFQVARGMEFLASRKCIHRDLAARNILLSESDVVKICDFGLARDIYKDPDYVRKGSARLPLKWMAPESIFDKVYTTQSDVWSFGVLLWEIFSLGASPYPGVQINEEFCQRLRDGTRMRAPELATPAIRRIMLNCWSGDPKARPAFSELVEILGDLLQGRGLQEEEEVCMAPRSSQSSEEGSFSQVSTMALHIAQADAEDSPPSLQRHSLAARYYNWVSFPGCLARGAETRGSSRMKTFEEFPMTPTTYKGSVDNQTDSGMVLASEEFEQIESRHRQESGFS
B7: FGFR4 (protein)
chain: RGQALHGRHPRPPATVQKLSRFPLARQFSLESGSSGKSSSSLVRGVRLSSSGPALLAGLVSLDLPLDPLWEFPRDRLVLGKPLGEGCFGQVVRAEAFGMDPARPDQASTVAVKMLKDNASDKDLADLVSEMEVMKLIGRHKNIINLLGVCTQEGPLYVIVECAAKGNLREFLRARRPPGPDLSPDGPRSSEGPLSFPVLVSCAYQVARGMQYLESRKCIHRDLAARNVLVTEDNVMKIADFGLARGVHHIDYYKKTSNGRLPVKWMAPEALFDRVYTHQSDVWSFGILLWEIFTLGGSPYPGIPVEELFSLLREGHRMDRPPHCPPELYGLMRECWHAAPSQRPTFKQLVEALDKVLLAVSEEYLDLRLTFGPYSPSGGDASSTCSSSDSVFSHDPLPLGSSSFPFGSGVQT
B8: EphB4 (protein)
chain: LCLRKQSNGREAEYSDKHGQYLIGHGTKVYIDPFTYEDPNEAVREFAKEIDVSYVKIEEVIGAGEFGEVCRGRLKAPGKKESCVAIKTLKGGYTERQRREFLSEASIMGQFEHPNIIRLEGVVTNSMPVMILTEFMENGALDSFLRLNDGQFTVIQLVGMLRGIASGMRYLAEMSYVHRDLAARNILVNSNLVCKVSDFGLSRFLEENSSDPTYTSSLGGKIPIRWTAPEAIAFRKFTSASDAWSYGIVMWEVMSFGERPYWDMSNQDVINAIEQDYRLPPPPDCPTSLHQLMLDCWQKDRNARPRFPQVVSALDKMIRNPASLKIVARENGGASHPLLDQRQPHYSAFGSVGEWLRAIKMGRYEESFAAAGFGSFELVSQISAEDLLRIGVTLAGHQKKILASVQHMKSQAKPGTPGGTGGPAPQY
B9: FMS (CSFR) (protein)
chain: KYKQKPKYQVRWKIIESYEGNSYTFIDPTQLPYNEKWEFPRNNLQFGKTLGAGAFGKVVEATAFGLGKEDAVLKVAVKMLKSTAHADEKEALMSELKIMSHLGQHENIVNLLGACTHGGPVLVITEYCCYGDLLNFLRRKAEAMLGPSLSPGQDPEGGVDYKNIHLEKKYVRRDSGFSSQGVDTYVEMRPVSTSSNDSFSEQDLDKEDGRPLELRDLLHFSSQVAQGMAFLASKNCIHRDVAARNVLLTNGHVAKIGDFGLARDIMNDSNYIVKGNARLPVKWMAPESIFDCVYTVQSDVWSYGILLWEIFSLGLNPYPGILVNSKFYKLVKDGYQMAQPAFAPKNIYSIMQACWALEPTHRPTFQQICSFLQEQAQEDRRERDYTNLPSSSRSGGSGSSSSELEEESSSEHLTCCEQGDIAQPLLQPNNYQFC
B10: FLT1 (protein)
chain: RKMKRSSSEIKTDYLSIIMDPDEVPLDEQCERLPYDASKWEFARERLKLGKSLGRGAFGKVVQASAFGIKKSPTCRTVAVKMLKEGATASEYKALMTELKILTHIGHHLNVVNLLGACTKQGGPLMVIVEYCKYGNLSNYLKSKRDLFFLNKDAALHMEPKKEKMEPGLEQGKKPRLDSVTSSESFASSGFQEDKSLSDVEEEEDSDGFYKEPITMEDLISYSFQVARGMEFLSSRKCIHRDLAARNILLSENNVVKICDFGLARDIYKNPDYVRKGDTRLPLKWMAPESIFDKIYSTKSDVWSYGVLLWEIFSLGGSPYPGVQMDEDFCSRLREGMRMRAPEYSTPEIYQIMLDCWHRDPKERPRFAELVEKLGDLLQANVQQDGKDYIPINAILTGNSGFTYSTPAFSEDFFKESISAPKFNSGSSDDVRYVNAFKFMSLERIKTFEELLPNATSMFDDYQGDSSTLLASPMLKRFTWTDSKPKASLKIDLRVTSKSKESGLSDVSRPSFCHSSCGHVSEGKRRFTYDHAELERKIACCSPPPDYNSVVLYSTPPI
B11: FGFR2 (protein)
chain: RMKNTTKKPDFSSQPAVHKLTKRIPLRRQVTVSAESSSSMNSNTPLVRITTRLSSTADTPMLAGVSEYELPEDPKWEFPRDKLTLGKPLGEGCFGQVVMAEAVGIDKDKPKEAVTVAVKMLKDDATEKDLSDLVSEMEMMKMIGKHKNIINLLGACTQDGPLYVIVEYASKGNLREYLRARRPPGMEYSYDINRVPEEQMTFKDLVSCTYQLARGMEYLASQKCIHRDLAARNVLVTENNVMKIADFGLARDINNIDYYKKTTNGRLPVKWMAPEALFDRVYTHQSDVWSFGVLMWEIFTLGGSPYPGIPVEELFKLLKEGHRMDKPANCTNELYMMMRDCWHAVPSQRPTFKQLVEDLDRILTLTTNEEYLDLSQPLEQYSPSYPDTRSSCSSGDDSVFSPDPMPYEPCLPQYPHINGSVKT
B12: FGFR3 (protein)
chain: RLRSPPKKGLGSPTVHKISRFPLKRQVSLESNASMSSNTPLVRIARLSSGEGPTLANVSELELPADPKWELSRARLTLGKPLGEGCFGQVVMAEAIGIDKDRAAKPVTVAVKMLKDDATDKDLSDLVSEMEMMKMIGKHKNIINLLGACTQGGPLYVLVEYAAKGNLREFLRARRPPGLDYSFDTCKPPEEQLTFKDLVSCAYQVARGMEYLASQKCIHRDLAARNVLVTEDNVMKIADFGLARDVHNLDYYKKTTNGRLPVKWMAPEALFDRVYTHQSDVWSFGVLLWEIFTLGGSPYPGIPVEELFKLLKEGHRMDKPANCTHDLYMIMRECWHAAPSQRPTFKQLVEDLDRVLTVTSTDEYLDLSAPFEQYSPGGQDTPSSSSSGDDSVFAHDLLPPAPPSSGGSRT

Target: T1, BRB1 tyrosine kinase substrate peptide

Protein | Signal to Noise ratio with BRB1 Peptide (TR-FRET kinase assay; kinase 0.25 nM) | also measured
B1 | 25.1 | –
B2 | – | Signal to Noise ratio with BRB1 Peptide (TR-FRET kinase assay; kinase 2 nM): 1.5
B3 | – | Signal to Noise ratio with BRB1 Peptide (TR-FRET kinase assay; kinase 0.5 nM): 19.2
B4 | – | Signal to Noise ratio with BRB1 Peptide (TR-FRET kinase assay; kinase 0.1 nM): 25.9
B5 | – | Signal to Noise ratio with BRB1 Peptide (TR-FRET kinase assay; kinase 0.1 nM): 3.1
B6 | 20 | –
B7 | – | Signal to Noise Ratio with BRB1 Peptide (TR-FRET kinase assay; kinase 3 nM): 17.7
B8 | – | Signal to Noise ratio with BRB1 Peptide (TR-FRET kinase assay; kinase 0.5 nM): 29.8
B9 | 3 | –
B10 | 4.1 | –
B11 | 27.1 | –
B12 | 24.4 | –
